Measured values taken from patent US20220143024A1, “METHODS OF USING IMIPRIDONES” (Board of Regents, The University of Texas System, priority 2019, published 2022).

Key:
Experiment in all cases: BioID-MS +ONC201
NUBPL (human) = NUBPL (human) (UniProt Q8TB37)
PDPR (human) = PDPR (human) (UniProt Q8NCN5)
ALDH6A1 (human) = ALDH6A1 (human) (UniProt Q02252)
ALDH4A1 (human) = ALDH4A1 (human) (UniProt P30038)
MRPL48 (human) = MRPL48 (human) (UniProt Q96GC5)
HSPA1L (human) = HSPA1L (human) (UniProt P34931)
HSDL2 (human) = HSDL2 (human) (UniProt Q6YN16)
MRPL54 (human) = MRPL54 (human) (UniProt Q6P161)
NME4 (human) = NME4 (human) (UniProt O00746)
DHTKD1 (human) = DHTKD1 (human) (UniProt Q96HY7)
MRPL44 (human) = MRPL44 (human) (UniProt Q9H9J2)
EARS2 (human) = EARS2 (human) (UniProt Q5JPH6)
FASTKD2 (human) = FASTKD2 (human) (UniProt Q9NYY8)
SDHAF3 (human) = SDHAF3 (human) (UniProt Q9NRP4)
ACADM (human) = ACADM (human) (UniProt P11310)
MRPS23 (human) = MRPS23 (human) (UniProt Q9Y3D9)
ECSIT (human) = ECSIT (human) (UniProt Q9BQ95)
ACO2 (human) = ACO2 (human) (UniProt Q99798)
NDUFAF7 (human) = NDUFAF7 (human) (UniProt Q7L592)
ABAT (human) = ABAT (human) (UniProt P80404)
MGME1 (human) = MGME1 (human) (UniProt Q9BQP7)
GLUD1 (human) = GLUD1 (human) (UniProt P00367)
PRKCA (human) = PRKCA (human) (UniProt P17252)
NDUFA7 (human) = NDUFA7 (human) (UniProt O95182)
COX4I1 (human) = COX4I1 (human) (UniProt P13073)
ABHD10 (human) = ABHD10 (human) (UniProt Q9NUJ1)
K1AA0564 (human) = K1AA0564 (human) (UniProt A3KMH1)
GPT2 (human) = GPT2 (human) (UniProt Q8TD30)
AARS2 (human) = AARS2 (human) (UniProt Q5JTZ9)
SLC27A2 (human) = SLC27A2 (human) (UniProt O14975)
RG9MTD1 (human) = RG9MTD1 (human) (UniProt Q7L0Y3)
MTHFD2 (human) = MTHFD2 (human) (UniProt P13995)
MRPS11 (human) = MRPS11 (human) (UniProt P82912)
ERAL1 (human) = ERAL1 (human) (UniProt O75616)
PYCR2 (human) = PYCR2 (human) (UniProt Q96C36)
MRPL46 (human) = MRPL46 (human) (UniProt Q9H2W6)
GUF1 (human) = GUF1 (human) (UniProt Q8N442)
NIPSNAP2 (human) = NIPSNAP2 (human) (UniProt O75323)
NFUl (human) = NFUl (human) (UniProt Q9UMS0)
OGDH (human) = OGDH (human) (UniProt Q02218)
ACADSB (human) = ACADSB (human) (UniProt P45954)
MRPS24 (human) = MRPS24 (human) (UniProt Q96EL2)
MTIF2 (human) = MTIF2 (human) (UniProt P46199)
TST (human) = TST (human) (UniProt Q16762)
MRPL21 (human) = MRPL21 (human) (UniProt Q7Z2W9)
PCK2 (human) = PCK2 (human) (UniProt Q16822)
AIFM1 (human) = AIFM1 (human) (UniProt O95831)
GRSF1 (human) = GRSF1 (human) (UniProt Q12849)
PET112 (human) = PET112 (human) (UniProt O75879)
MRRF (human) = MRRF (human) (UniProt Q96E11)
PDIA3 (human) = PDIA3 (human) (UniProt P30101)
Sequence of PDIA3 (human) (P30101 25-505 limits assumed): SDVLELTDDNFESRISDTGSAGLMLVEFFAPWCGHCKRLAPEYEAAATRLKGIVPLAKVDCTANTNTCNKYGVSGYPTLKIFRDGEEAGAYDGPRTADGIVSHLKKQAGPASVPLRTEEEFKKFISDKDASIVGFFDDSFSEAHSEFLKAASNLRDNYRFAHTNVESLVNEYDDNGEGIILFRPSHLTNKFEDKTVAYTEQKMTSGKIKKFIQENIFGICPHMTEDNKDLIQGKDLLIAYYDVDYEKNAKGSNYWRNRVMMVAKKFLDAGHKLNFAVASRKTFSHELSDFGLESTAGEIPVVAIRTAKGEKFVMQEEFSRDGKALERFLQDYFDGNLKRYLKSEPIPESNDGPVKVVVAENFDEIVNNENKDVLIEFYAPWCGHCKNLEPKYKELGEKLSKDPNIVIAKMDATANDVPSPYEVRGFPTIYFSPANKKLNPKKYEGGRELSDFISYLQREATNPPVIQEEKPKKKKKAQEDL

Sequence of ERAL1 (human) (O75616 44-437 limits assumed): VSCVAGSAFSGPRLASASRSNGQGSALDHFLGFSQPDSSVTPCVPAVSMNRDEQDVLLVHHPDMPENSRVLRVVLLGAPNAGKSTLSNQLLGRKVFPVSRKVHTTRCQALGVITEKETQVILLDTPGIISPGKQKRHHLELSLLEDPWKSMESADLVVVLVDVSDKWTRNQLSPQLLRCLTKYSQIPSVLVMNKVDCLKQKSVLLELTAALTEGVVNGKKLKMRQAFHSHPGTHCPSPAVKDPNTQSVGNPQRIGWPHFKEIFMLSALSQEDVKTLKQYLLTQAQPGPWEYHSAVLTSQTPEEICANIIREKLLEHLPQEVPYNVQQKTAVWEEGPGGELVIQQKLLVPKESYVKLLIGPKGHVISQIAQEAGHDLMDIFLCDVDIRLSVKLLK
Sequence of SLC27A2 (human) (O14975 whole entry): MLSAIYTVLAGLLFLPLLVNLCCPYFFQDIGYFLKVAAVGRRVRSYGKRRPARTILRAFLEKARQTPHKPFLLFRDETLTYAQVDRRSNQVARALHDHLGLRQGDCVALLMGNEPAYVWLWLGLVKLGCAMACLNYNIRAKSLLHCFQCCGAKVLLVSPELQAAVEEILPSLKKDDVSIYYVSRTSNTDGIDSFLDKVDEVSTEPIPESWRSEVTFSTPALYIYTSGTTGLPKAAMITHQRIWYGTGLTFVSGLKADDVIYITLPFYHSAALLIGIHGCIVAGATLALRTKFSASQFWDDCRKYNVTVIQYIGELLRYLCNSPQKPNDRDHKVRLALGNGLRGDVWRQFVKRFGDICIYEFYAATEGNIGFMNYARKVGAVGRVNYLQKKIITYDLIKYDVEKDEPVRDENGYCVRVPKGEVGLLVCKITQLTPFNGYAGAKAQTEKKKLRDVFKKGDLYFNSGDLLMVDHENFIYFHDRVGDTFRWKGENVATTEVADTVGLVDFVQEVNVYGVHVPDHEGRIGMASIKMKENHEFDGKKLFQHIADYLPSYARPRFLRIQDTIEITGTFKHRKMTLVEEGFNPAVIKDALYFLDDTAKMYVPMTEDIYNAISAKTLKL
Sequence of DHTKD1 (human) (Q96HY7 whole entry): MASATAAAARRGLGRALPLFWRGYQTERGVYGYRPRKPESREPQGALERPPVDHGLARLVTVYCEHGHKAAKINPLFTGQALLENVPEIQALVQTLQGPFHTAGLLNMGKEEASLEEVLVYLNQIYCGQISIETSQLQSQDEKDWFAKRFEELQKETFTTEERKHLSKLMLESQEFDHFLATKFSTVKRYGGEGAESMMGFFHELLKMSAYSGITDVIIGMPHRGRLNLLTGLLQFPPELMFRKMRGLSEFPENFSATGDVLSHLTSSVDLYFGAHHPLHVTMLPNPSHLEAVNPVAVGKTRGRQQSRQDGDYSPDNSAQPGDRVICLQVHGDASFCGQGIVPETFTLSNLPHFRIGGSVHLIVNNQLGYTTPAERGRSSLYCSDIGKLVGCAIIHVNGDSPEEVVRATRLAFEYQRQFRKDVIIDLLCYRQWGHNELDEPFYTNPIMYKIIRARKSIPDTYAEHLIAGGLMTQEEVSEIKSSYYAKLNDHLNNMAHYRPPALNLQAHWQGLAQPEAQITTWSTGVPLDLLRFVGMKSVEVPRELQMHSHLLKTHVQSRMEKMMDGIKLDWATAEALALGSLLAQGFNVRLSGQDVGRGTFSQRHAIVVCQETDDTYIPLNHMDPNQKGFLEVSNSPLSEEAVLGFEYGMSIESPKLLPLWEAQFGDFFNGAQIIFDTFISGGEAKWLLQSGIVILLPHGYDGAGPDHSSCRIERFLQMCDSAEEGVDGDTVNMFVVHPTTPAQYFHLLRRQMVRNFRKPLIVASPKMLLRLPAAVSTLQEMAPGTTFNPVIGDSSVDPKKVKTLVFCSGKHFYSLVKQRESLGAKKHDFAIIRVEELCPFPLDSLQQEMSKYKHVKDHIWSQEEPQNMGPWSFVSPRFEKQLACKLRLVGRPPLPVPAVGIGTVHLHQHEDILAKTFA
Sequence of NDUFAF7 (human) (Q7L592 47-441 limits assumed): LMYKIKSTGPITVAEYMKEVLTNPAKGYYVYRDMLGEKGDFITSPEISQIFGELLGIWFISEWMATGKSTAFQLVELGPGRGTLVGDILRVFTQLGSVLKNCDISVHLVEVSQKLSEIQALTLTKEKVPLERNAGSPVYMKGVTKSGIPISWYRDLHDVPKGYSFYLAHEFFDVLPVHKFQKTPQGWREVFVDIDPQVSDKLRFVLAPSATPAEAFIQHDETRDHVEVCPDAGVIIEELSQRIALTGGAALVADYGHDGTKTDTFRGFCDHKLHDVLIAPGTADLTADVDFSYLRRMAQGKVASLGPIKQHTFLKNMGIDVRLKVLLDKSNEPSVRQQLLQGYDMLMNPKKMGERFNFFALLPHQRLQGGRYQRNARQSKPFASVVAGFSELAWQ
Sequence of GUF1 (human) (Q8N442 50-669 limits assumed): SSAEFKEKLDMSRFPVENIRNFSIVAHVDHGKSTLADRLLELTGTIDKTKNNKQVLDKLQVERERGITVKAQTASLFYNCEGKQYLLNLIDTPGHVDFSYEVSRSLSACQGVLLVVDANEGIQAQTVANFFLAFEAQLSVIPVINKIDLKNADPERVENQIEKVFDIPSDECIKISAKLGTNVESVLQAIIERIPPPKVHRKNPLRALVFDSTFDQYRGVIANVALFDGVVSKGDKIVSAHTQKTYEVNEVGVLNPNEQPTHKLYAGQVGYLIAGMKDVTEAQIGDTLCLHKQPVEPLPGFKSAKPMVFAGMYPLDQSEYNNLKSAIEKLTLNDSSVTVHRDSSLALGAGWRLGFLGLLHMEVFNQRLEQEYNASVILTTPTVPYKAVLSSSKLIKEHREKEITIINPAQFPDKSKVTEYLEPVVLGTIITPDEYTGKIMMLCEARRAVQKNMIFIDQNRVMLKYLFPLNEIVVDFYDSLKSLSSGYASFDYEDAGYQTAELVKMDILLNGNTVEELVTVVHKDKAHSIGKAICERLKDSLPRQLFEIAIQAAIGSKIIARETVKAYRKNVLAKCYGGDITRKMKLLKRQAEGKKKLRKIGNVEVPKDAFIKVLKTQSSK
Sequence of ALDH6A1 (human) (Q02252 34-535 limits assumed): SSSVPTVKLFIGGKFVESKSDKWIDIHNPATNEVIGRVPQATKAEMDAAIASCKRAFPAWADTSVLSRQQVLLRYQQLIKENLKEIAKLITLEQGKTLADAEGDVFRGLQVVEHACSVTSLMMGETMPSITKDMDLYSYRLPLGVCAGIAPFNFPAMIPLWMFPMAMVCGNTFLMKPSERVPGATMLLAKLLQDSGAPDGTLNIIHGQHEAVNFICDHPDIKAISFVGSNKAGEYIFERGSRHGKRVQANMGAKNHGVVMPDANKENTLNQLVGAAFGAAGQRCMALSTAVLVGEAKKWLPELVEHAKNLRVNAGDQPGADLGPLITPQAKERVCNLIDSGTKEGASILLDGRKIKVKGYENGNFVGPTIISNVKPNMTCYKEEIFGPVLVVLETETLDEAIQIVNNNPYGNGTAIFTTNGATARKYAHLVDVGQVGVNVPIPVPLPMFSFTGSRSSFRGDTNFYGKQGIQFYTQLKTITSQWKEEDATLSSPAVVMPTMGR
Sequence of FASTKD2 (human) (Q9NYY8 whole entry): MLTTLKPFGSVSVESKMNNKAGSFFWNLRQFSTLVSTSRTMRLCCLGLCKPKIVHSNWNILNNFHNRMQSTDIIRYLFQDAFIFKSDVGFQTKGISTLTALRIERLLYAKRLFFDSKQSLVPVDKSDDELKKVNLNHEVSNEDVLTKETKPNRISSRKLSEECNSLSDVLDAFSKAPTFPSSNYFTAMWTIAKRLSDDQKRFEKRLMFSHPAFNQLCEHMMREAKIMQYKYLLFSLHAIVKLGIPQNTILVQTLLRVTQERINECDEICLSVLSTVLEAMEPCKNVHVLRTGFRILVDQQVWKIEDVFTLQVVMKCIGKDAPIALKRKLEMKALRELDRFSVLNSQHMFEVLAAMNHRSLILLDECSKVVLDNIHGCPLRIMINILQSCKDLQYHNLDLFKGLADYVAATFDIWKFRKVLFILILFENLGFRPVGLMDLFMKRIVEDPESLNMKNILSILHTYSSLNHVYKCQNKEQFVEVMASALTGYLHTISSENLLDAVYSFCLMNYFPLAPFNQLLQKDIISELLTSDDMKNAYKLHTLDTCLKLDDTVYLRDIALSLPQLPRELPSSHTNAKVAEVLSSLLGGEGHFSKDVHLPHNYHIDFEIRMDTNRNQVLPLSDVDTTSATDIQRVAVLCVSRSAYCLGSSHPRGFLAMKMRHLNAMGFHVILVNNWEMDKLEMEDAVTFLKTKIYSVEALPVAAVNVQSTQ
Sequence of SDHAF3 (human) (Q9NRP4 31-125 limits assumed): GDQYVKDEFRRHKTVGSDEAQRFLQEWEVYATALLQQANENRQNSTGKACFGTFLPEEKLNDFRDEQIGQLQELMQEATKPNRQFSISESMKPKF
Sequence of NDUFA7 (human) (O95182 2-113 limits assumed): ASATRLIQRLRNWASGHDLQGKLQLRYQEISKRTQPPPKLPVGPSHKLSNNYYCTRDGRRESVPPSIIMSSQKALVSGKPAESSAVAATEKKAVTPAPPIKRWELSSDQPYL

## FlagBirA-ClpP (WT) (from UniProt P06709 1-321; Q16740 57-277) (enzyme)
NUBPL (human)
  Log2 Fold change (vs control): -4.17 log2
PDPR (human)
  Log2 Fold change (vs control): -4.95 log2
ALDH6A1 (human)
  Log2 Fold change (vs control): -3.81 log2
ALDH4A1 (human)
  Log2 Fold change (vs control): -2.21 log2
MRPL48 (human)
  Log2 Fold change (vs control): -4.17 log2
HSPA1L (human)
  Log2 Fold change (vs control): 0.5 log2
HSDL2 (human)
  Log2 Fold change (vs control): -0.71 log2
MRPL54 (human)
  Log2 Fold change (vs control): -4 log2
NME4 (human)
  Log2 Fold change (vs control): -1.16 log2
DHTKD1 (human)
  Log2 Fold change (vs control): -5.25 log2
MRPL44 (human)
  Log2 Fold change (vs control): -5.04 log2
EARS2 (human)
  Log2 Fold change (vs control): -1.29 log2
FASTKD2 (human)
  Log2 Fold change (vs control): -0.62 log2
SDHAF3 (human)
  Log2 Fold change (vs control): -3.82 log2
ACADM (human)
  Log2 Fold change (vs control): -1.06 log2
MRPS23 (human)
  Log2 Fold change (vs control): -1.58 log2
ECSIT (human)
  Log2 Fold change (vs control): -5.36 log2
ACO2 (human)
  Log2 Fold change (vs control): -5.46 log2
NDUFAF7 (human)
  Log2 Fold change (vs control): -1.89 log2
ABAT (human)
  Log2 Fold change (vs control): -2.58 log2
MGME1 (human)
  Log2 Fold change (vs control): 0.27 log2
GLUD1 (human)
  Log2 Fold change (vs control): -1.63 log2
PRKCA (human)
  Log2 Fold change (vs control): -3.58 log2
NDUFA7 (human)
  Log2 Fold change (vs control): -3.81 log2
COX4I1 (human)
  Log2 Fold change (vs control): -2.74 log2
ABHD10 (human)
  Log2 Fold change (vs control): -1.53 log2
K1AA0564 (human)
  Log2 Fold change (vs control): -0.71 log2
GPT2 (human)
  Log2 Fold change (vs control): -3.7 log2
AARS2 (human)
  Log2 Fold change (vs control): -5.73 log2
SLC27A2 (human)
  Log2 Fold change (vs control): -1.81 log2
RG9MTD1 (human)
  Log2 Fold change (vs control): -1.3 log2
MTHFD2 (human)
  Log2 Fold change (vs control): -1.43 log2
MRPS11 (human)
  Log2 Fold change (vs control): -4.25 log2
ERAL1 (human)
  Log2 Fold change (vs control): -6.19 log2
PYCR2 (human)
  Log2 Fold change (vs control): -0.21 log2
MRPL46 (human)
  Log2 Fold change (vs control): -6.09 log2
GUF1 (human)
  Log2 Fold change (vs control): -4.04 log2
NIPSNAP2 (human)
  Log2 Fold change (vs control): -0.31 log2
NFUl (human)
  Log2 Fold change (vs control): -4.32 log2
OGDH (human)
  Log2 Fold change (vs control): -3.7 log2
ACADSB (human)
  Log2 Fold change (vs control): -1.76 log2
MRPS24 (human)
  Log2 Fold change (vs control): -4.81 log2
MTIF2 (human)
  Log2 Fold change (vs control): -5.55 log2
TST (human)
  Log2 Fold change (vs control): -5.55 log2
MRPL21 (human)
  Log2 Fold change (vs control): -4.52 log2
PCK2 (human)
  Log2 Fold change (vs control): -5.32 log2
AIFM1 (human)
  Log2 Fold change (vs control): -1.58 log2
GRSF1 (human)
  Log2 Fold change (vs control): -6.34 log2
PET112 (human)
  Log2 Fold change (vs control): -3.03 log2
MRRF (human)
  Log2 Fold change (vs control): -5.49 log2
PDIA3 (human)
  Log2 Fold change (vs control): 0.03 log2
